The text below walks through data of patent US20030109454A1 (ADHEREX TECHNOLOGIES, published 2003).

Sequences and labels used below:
B1: N-Ac-CINPISC-NH2 (peptide)
peptide: Ac-CINPISC-NH2
modifications: not fully specified (bridges); printed as N-Ac-CINPISC-NH2; also: cyclic peptide, linkage not given here
B2: N-Ac-CIDPVNC-NH2 (peptide)
peptide: Ac-CIDPVNC-NH2
modifications: not fully specified (bridges); printed as N-Ac-CIDPVNC-NH2; also: cyclic peptide, linkage not given here

One assay addresses N-cadherin expressed on transfected 3T3 cells. Kind of assay: cell-based or functional assay.
Regarding B1, the “EC50 of inhibition of neurite outgrowth on 3T3 cells expressing N-cadherin” value stood at 38.1 µM.

Ac-CINPC-NH2 (also: cyclic peptide, ring type not given here) [N-Ac-CINPC-NH2]: the “EC50 of inhibition of neurite outgrowth on 3T3 cells expressing N-cadherin” value amounted to 14.3 µM.

As to Ac-CINPIC-NH2 (not fully specified (bridges); also: cyclic peptide, linkage not given here) [N-Ac-CINPIC-NH2], the “EC50 of inhibition of neurite outgrowth on 3T3 cells expressing N-cadherin” value was 38.2 µM.

Another assay shares this target. The assay can be described thus: cell-based or functional assay. The source holds these as a separate data set.
Regarding H-LKIDAVNGQI-OH [H-LKIDAVNGQI-OH], the “percent inhibition of neurite outgrowth, peptide at 100 µg/ml” value came out at 104%.

For the molecule Ac-IDPVNGQ-NH2 [N-Ac-IDPVNGQ-NH2], the “percent inhibition of neurite outgrowth, peptide at 33 µg/ml” value (“percent inhibition … at 33 µg/ml” below) worked out at 34.3%; the “percent inhibition of neurite outgrowth, peptide at 100 µg/ml” value amounted to 56.4%; the “percent inhibition of neurite outgrowth, peptide at 250 µg/ml” value (shortened to “percent inhibition … at 250 µg/ml”) was found to be 85.6%.

Turning to Ac-WLKADAVNGQI-NH2 [N-Ac-WLKADAVNGQI-NH2], the “percent inhibition of neurite outgrowth, peptide at 100 µg/ml” value is 10.5% and the “percent inhibition … at 250 µg/ml” value worked out at 19.7%.

In the case of B2, the “percent inhibition … at 33 µg/ml” value was found to be 40.6%; the “percent inhibition of neurite outgrowth, peptide at 100 µg/ml” value was 75.8%; the “percent inhibition … at 250 µg/ml” value turned out to be 96.4%.

As to Ac-WLKADPVNGQI-NH2 [N-Ac-WLKADPVNGQI-NH2], the “percent inhibition of neurite outgrowth, peptide at 100 µg/ml” value was 22.2% and the “percent inhibition … at 250 µg/ml” value amounted to 54.7%.

As to Ac-WLKIDPVNGQI-NH2 [N-Ac-WLKIDPVNGQI-NH2], the “percent inhibition … at 33 µg/ml” value was determined as 19.8%; the “percent inhibition of neurite outgrowth, peptide at 100 µg/ml” value worked out at 66.9%; the “percent inhibition … at 250 µg/ml” value came out at 83.5%.

As to Ac-NLKIDPVNGQI-NH2 [N-Ac-NLKIDPVNGQI-NH2], the “percent inhibition … at 33 µg/ml” value amounted to 25.6%; the “percent inhibition of neurite outgrowth, peptide at 100 µg/ml” value was determined as 67.8%; the “percent inhibition … at 250 µg/ml” value was 86.8%.

H-WLKIDPVNGQI-OH [H-WLKIDPVNGQI-OH]: the “percent inhibition of neurite outgrowth, peptide at 100 µg/ml” value is 76.1%.

As for H-LKIDPANGQI-OH [H-LKIDPANGQI-OH], the “percent inhibition of neurite outgrowth, peptide at 100 µg/ml” value is 56.8%.

Regarding H-LKIDPVNGQI-OH [H-LKIDPVNGQI-OH], the “percent inhibition of neurite outgrowth, peptide at 100 µg/ml” value came to 46%.

Ac-WLKIDAVNGQI-NH2 [N-Ac-WLKIDAVNGQI-NH2]: the “percent inhibition of neurite outgrowth, peptide at 100 µg/ml” value was 12.4% and the “percent inhibition … at 250 µg/ml” value was 52.3%.

For a further assay the target is unchanged. The assay can be described thus: cell-based or functional assay. The source holds these as a separate data set.
Turning to Ac-WLKIDPVNGQI-NH2 [N-Ac-WLKIDPVNGQI-NH2], the “EC50 of inhibition of neurite outgrowth” value worked out at 46 µM.

The next assay has the same target. Kind of assay: cell-based or functional assay. This is another data set of the same source.
Regarding Ac-INPASGQ-NH2 [N-Ac-INPASGQ-NH2], the “percent inhibition of neurite outgrowth on 3T3 cells expressing N-cadherin, peptide at 100 µg/ml” value amounted to 7.2%.

For Ac-INAISGQ-NH2 [N-Ac-INAISGQ-NH2], the “percent inhibition of neurite outgrowth on 3T3 cells expressing N-cadherin, peptide at 100 µg/ml” value amounted to 37.2%.

As for Ac-LNPISGQ-NH2 [N-Ac-LNPISGQ-NH2], the “percent inhibition of neurite outgrowth on 3T3 cells expressing N-cadherin, peptide at 100 µg/ml” value stood at 19.2%.

As for Ac-INPISGQ-NH2 [N-Ac-INPISGQ-NH2], the “percent inhibition of neurite outgrowth on 3T3 cells expressing N-cadherin, peptide at 100 µg/ml” value was 94.5%.
